According to patent publication US20030200558A1 (MONSANTO, published 2003):
Substitutions are numbered along the chain they refer to.

B1: β-conglycinin β subunit mutant 39335-17 (other)
chain: MDYKDDDDKLKVREDENNPFYLRSSNSFQTLFENQNGRIRLIQRFNKRSPQLENLRDYRIVQIQSKPNTIILPHHADADFIIIILSGRAILTLVNNDDRDSYNIHPGDAIRIPAGTTYYIINPHDHQNLKIIKIAIPVNKPGRYDDFFLSSTQAQQSYLQGFSHNILETSFHSEFEEINRVLLGEEEEQRQQEGVIVELSKEQIRQLSRRAKSSSRKTISSEDEPFNLRSRNPIYSNNFGKIFEITPEKTPQLRDLDIFISSVDINEGALILPHFNSKAIVILVINEGDANIEIVGIKEQQQKQKQEEEPLEVQRYRAELSEDDIIVIPAAYPFVVNATSNLNIIAIGINAENNQRNFLAGEKDNVVRQIERQVQELAFPGSAQDVERLLKKQRESYFVDAQPQQKEEGSKGRKGPFPSILGALY
B2: β-conglycinin β subunit mutant 39335-71 (other)
chain: B1 chain with L52I, I63F, I110Q, I242F, L253I, I260L, I271L, I294L
B3: β-conglycinin β subunit mutant 39335-46 (other)
chain: B1 chain with L91I, L93I, I110Q, I242F, I271L, I294L
B4: β-conglycinin β subunit mutant 39335-28 (other)
chain: B1 chain with I63F, L91I, I325V, I326F
B5: β-conglycinin β subunit mutant 39335-27 (other)
chain: B1 chain with L91I, V336I, I344F, I345L, I347F
B6: β-conglycinin β subunit mutant 39335-64 (other)
chain: B1 chain with L91I, L93I, I242F, L272I, V336I, I344F, I345L, I347F
B7: β-conglycinin β subunit mutant 39335-70 (other)
chain: B1 chain with L52I, I63F, L91I, L93I, I110Q, I242F, L253I, I260L, I271L, I294L
B8: β-conglycinin β subunit mutant 39335-56 (other)
chain: B1 chain with L91I, L93I, I271L, V336I, I344F, I347F, F398I
B9: β-conglycinin β subunit mutant 39335-49 (other)
chain: B1 chain with I63F, I110Q, I242F, I271L, I294L
B10: β-conglycinin β subunit mutant 39335-51 (other)
chain: B1 chain with L91I, L93I, I242F, I271L
B11: β-conglycinin β subunit mutant 39335-26 (other)
chain: B1 chain with I63F, I110Q, I242F, I260L, I271L, I294L
B12: β-conglycinin β subunit mutant 39335-57 (other)
chain: B1 chain with L91I, L93I, I242F, I271L, I326F, V336I, I344F, I347F
B13: β-conglycinin β subunit mutant 39335-22 (other)
chain: B1 chain with L91I, L93I, V336I, I344F, I345L, I347F
B14: β-conglycinin β subunit mutant 39335-43 (other)
chain: B1 chain with I63F, I260L, I271L, I294L
B15: β-conglycinin β subunit mutant 39335-31 (other)
chain: B1 chain with I63F, L91I, L93I, V336I, I344F, I345L, I347F
B16: β-conglycinin β subunit mutant 39335-19 (other)
chain: B1 chain with L91I
B17: β-conglycinin β subunit mutant 39335-10 (other)
chain: MDYKDDDDKLKVREDENNPFYLRSSNSFQTLFENQNGRIRLIQRFNKRSPQLENLRDYIIVQFQSKPNTILLPHHADADFIIIILSGRAILTLVNNDDRDSYNLHPGIAQRIPAGTTYYIINPHDHQNLKIIKIAIPVNKPGRYDDFFLSSTQAQQSYLQGFSHNILETSFHSEFEEINRVLLGEEEEQRQQEGVIVELSKEQIRQLSRRAKSSSRKTISSEDEPFNLRSRNPIYSNNFGKIFEITPEKTPQLRDLDIFLSSVDINEGALLLPHFNSKAIVILVINEGDANIEIVGIKEQQQKQKQEEEPLEVQRYRAELSEDDVFVIPAAYPFVVNATSNLNFLAFGINAENNQRNFLAGEKDNVVRQIERQVQELAFPGSAQDVERLLKKQRESYIVDAQPQQKEEGSKGRKGPFPSILGALY
B18: β-conglycinin β subunit mutant 39335-12 (other)
chain: B17 chain with L71I, I108D
B19: β-conglycinin β subunit mutant 39335-38 (other)
chain: B17 chain with I59R, L71I, L104I, I108D, I242F, L271I, I294L, I398F
B20: β-conglycinin β subunit mutant 39335-42 (other)
chain: B1 chain with I260L, I271L, I294L, I344F, I345L, I347F
B21: β-conglycinin β subunit mutant 39335-20 (other)
chain: B1 chain with L91I, I325V, I326F, I344F, I345L, I347F
B22: β-conglycinin β subunit mutant 39335-13 (other)
chain: B17 chain with I59R, L71I, L104I, I108D, I120L, I121V, I294L, I398F
B23: β-conglycinin β subunit mutant 39335-21 (other)
chain: B17 chain with I59R, F63I, L71I, L104I, I108D, I242F, L271I, V336I, I398F
B24: β-conglycinin β subunit mutant 39335-29 (other)
chain: B1 chain with I63F, I110Q, I325V, I326F
B25: β-conglycinin β subunit mutant 39335-25 (other)
chain: B1 chain with I63F, L91I, I325V, I326F, I344F, I345L, I347F
B26: β-conglycinin β subunit mutant 39335-74 (other)
chain: B17 chain with I59R, L71I, L104I, I108D, I242F, I294L
B27: β-conglycinin β subunit mutant 39335-36 (other)
chain: B1 chain with I63F, I242F, I325V, I326F, V336I, I344F, I345L, I347F
B28: β-conglycinin β subunit mutant 39335-66 (other)
chain: B17 chain with I59R, L71I, L104I, I108D, I294L
B29: β-conglycinin β subunit mutant 39335-1 (other)
chain: MDYKDDDDKLKVREDENNPFYLRSSNSFQTLFENQNGRIRLIQRFNKRSPQLENLRDYRIVQFQSKPNTIILPHHADADFLLFVLSGRAILTLVNNDDRDSYILHPGDAQRIPAGTTYYLVNPHDHQNLKIIILAIPVNKPGRYDDFFLSSTQAQQSYLQGFSHNILETSFHSEFEEINRVLLGEEEEQRQQEGIIVELSKEQIRQLSRRAKSSSRKTISSEDEPFNLRSRNPIYSNNFGKIFEITPEKIIQLRDLDIFLSSVDINEGALLLPHFNSKAIVIIIINEGDANIEIVGIKEQQQKQKQEEEILEVQRYRAELSEDDVFVIPAAYPIVVNATSNINFLAFGINAENIQRNFLAGEKDNVVRQIERQVQELAFPGSAQDVERLLKKQRESYIVDAQPQQKEEGSKGRKGPFPSILGALY
B30: β-conglycinin β subunit mutant 39335-2 (other)
chain: B29 chain with R59I, L81I, I242F, I283L, I284V, I294L, I310P
B31: β-conglycinin β subunit mutant 39335-3 (other)
chain: MDYKDDDDKLKVREDENIPFYLRSSNSFQTLFENQNGRIRLIQRFNKRSPQLENLRDYIIVQFQSKPNTILLPIHADADFLLFVLSGRAILTLVNNDDRDSYNLHPGDAQRIPAGTTYYLVNPHDHQNLKIIKLAIIVNKPGRYDDFFLSSTQAQQSYLQGFSHNILETSFHSEFEEINRVLLGEEEEQRQQEGIIVELSKEQIRQLSRRAKSSSRKTISSEDEPFNLRSRNIIYSNNFGKFFEITPEKTPQLRDLDIFLSSVDINEGALLLPHFNSKAIVILVIIEGDANIELVGIKEQQQKQKQEEEPLEVQRYRAELSEDDVFVIPAAYPFVVNATSNLNFLAFGINAENNQRNFLAGEKDNVVRQIERQVQELAFPGSAQDVERLLKKQRESYFVDAQPQQKEEGSKGRKGPFPSILGALY
B32: β-conglycinin β subunit mutant 39335-6 (other)
chain: B31 chain with D108I, P123I, T250I, P251I

Biological target: the molecule itself
Assay: sucrose gradient sedimentation, anti-FLAG western (self-assembly)

Binding result, no binding:
B1
B2
B3
B4
B5
B6
B7
B8
B9
B10
B11
B12
B13
B14
B15
B16
B17
B18
B19
B20
B21
B22
B23
B24
B25
B26
B27
B28
B29
B30
B31
B32
